Test results from US20240247076A1 (SUZHOU ALPHAMAB, published 2024).

T1: mApple-chis (mouse, UniProt Q91Y47 19-389)
T1 construct: range 1-389; also called mapple-chis-biotin
T1 sequence (looked up): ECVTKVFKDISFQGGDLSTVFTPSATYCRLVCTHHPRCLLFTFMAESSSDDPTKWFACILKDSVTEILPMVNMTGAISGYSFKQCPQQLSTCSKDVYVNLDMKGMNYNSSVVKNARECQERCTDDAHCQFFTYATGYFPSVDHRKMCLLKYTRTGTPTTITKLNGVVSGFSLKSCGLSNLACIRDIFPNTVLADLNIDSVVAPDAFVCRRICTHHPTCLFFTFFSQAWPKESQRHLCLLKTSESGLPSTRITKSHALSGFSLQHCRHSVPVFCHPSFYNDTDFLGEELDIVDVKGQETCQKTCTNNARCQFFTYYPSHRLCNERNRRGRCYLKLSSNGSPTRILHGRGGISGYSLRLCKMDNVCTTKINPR


Assays:
[1] = biological target: T2, hApple-chis (human, UniProt P03951 19-387); experiment: ELISA, purified tagged VHH on coated antigen
T2 construct: range 1-387; also called happle-chis-biotin
Procedure: (§1) Plates were coated with hApple and mApple proteins, respectively, at 0.5 μg/well and reacted overnight at 4° C. The plates were added with a gradient dilution series of the candidate single-domain antibodies with His and HA tags obtained in 1.4. and reacted at room temperature for 2 hours. After washing, a chicken anti-HA-tag secondary antibody (streptavidin-HRP, abcam) labeled with horseradish peroxidase was added and reacted at room temperature for 2 hours. After washing, a chromogenic solution was added, absorbance values at 450 nm and 650 nm wavelengths were read, and a final absorbance value was obtained by subtracting the absorbance value at 650 nm wavelength from the absorbance value at 450 nm wavelength. Data processing and mapping analysis were carried out by using software SotfMax Pro v5.4, and through four-parameter filling, binding curves of the candidate single-domain antibodies against FXI to hApple and mApple and EC₅₀ values were obtained so as to reflect the affinities of the candidate antibodies for hApple and mApple.

[2] = biological target: T1, mApple-chis; experiment: ELISA, clone lysate on coated antigen
Procedure: (§2) The FXI-binding positive phages obtained after panning were infected with blank E. coli and plated. Then 190 single colonies were randomly selected, named iFE 1 to iFE 190, and separately inoculated into 2TY-AG, and when the colonies were cultured to OD600 of about 0.8, IPTG was added to a final concentration of about 1 mM; after the expression was induced overnight at 25° C., single-domain antibodies were expressed in E. coli periplasm; the next day, the bacteria were harvested and lysed, and the supernatant was collected and used for ELISA assay. The plates were coated with hFXI, hApple and mApple, respectively, and then reacted overnight at 4° C., and the obtained sample lysis supernatant (the control group was E. coli lysis supernatant as a blank control) was added and reacted at room temperature for 2 hours. After washing, secondary antibody Goat anti-HA tag HRP (purchased from abcam) was added and reacted at room temperature for 2 hours. After washing, TMB chromogenic solution was added, absorbance values at 450 nm and 650 nm wavelengths were read, and a final absorbance value was obtained by subtracting the absorbance value at 650 nm wavelength from the absorbance value at 450 nm wavelength. When the OD value of the sample wells was more than 2 times larger than that of the control wells, the sample wells were determined as positive cloning wells.

[3] = biological target: T3, recombinant human factor XI (hFXI) (human, UniProt P03951 19-625); experiment: ELISA, clone lysate on coated antigen
T3 construct: also called hFXI-Chis; hFXI-CHis
Procedure: as §2

[4] = biological target: T2, hApple-chis; experiment: ELISA, clone lysate on coated antigen
Procedure: as §2

[5] = biological target: T1, mApple-chis; experiment: ELISA, purified tagged VHH on coated antigen
Procedure: as §1

Binder | EC50 [1] [µg/mL] | OD [2] [OD] | OD [3] [OD] | OD [4] [OD] | EC50 [5] [µg/mL] | OD at 20 µg/mL [5] [OD] | OD at 20 µg/mL [1] [OD]
iFE5 (VHH, not shown: small tags and cut ends, also called antibody strain 5) VHH: QVQLQESGGGSVQAGGSLRLSCAASGYTYSFNSMGWFRQAPGKEREGVAVIYLGSTHYADSVKGRFTISQDNAKNMVYLQMNSLKPEDTAMYYCAADLLEYDGTWFGSTYNYWGQGTQVTVSS | 0.0329 | 0.069 | 1.33 | 1.62 | – | – | –
iFE43 (VHH, not shown: small tags and cut ends, also called antibody strain 43) VHH: QVQLQESGGGSVQAGGSLRLSCAASGLRFSIYDWSWVRQAPGKGLEWVSAINSGGGVTSYADSVKGRVTISRDNAKNTLYLQMHSLKTEDTAVYYCATGDGGSWYRDGDWGQGTQVTVSS | – | 0.04 | 1.06 | 1.38 | – | – | –
iFE35 (VHH, not shown: small tags and cut ends, also called antibody strain 35) VHH: QVQLQESGGGSVQAGGSLGLSCTASGFTFDDSDMGWYRQAPGNECELVSTISSDGRGFYADSVKGRFTISQDRAKNTVYLHMNSLKPEDTAVYYCAAGWYGSFCSGLGQGTQVTVSS | 0.0241 | 0.043 | 1.8 | 1.61 | – | – | –
iFE56 (VHH, not shown: small tags and cut ends, also called antibody strain 56) VHH: QVQLQESGGGSVQAGGSLRLSCAASGHTYSSNYCMAWFRQAPGKEREGVAAIYSDGSTSYADSVKGRFTISKDNAKNTLYLQIDSLKPEDTSLYYCAATAYEGSWTGKQPLCLLYEYTYWGQGTQVTVSS | 0.323 | 0.04 | 1.42 | 1.46 | – | – | –
iFE50 (VHH, not shown: small tags and cut ends, also called antibody strain 50) VHH: QVQLQESGGGLVQPGGSLRLSCAASGFTFSLYDMSWVRQAPGQGLEWVSAITNPGGSTYYADSVKDRFTISRDNAKNTLYLQMNSLKTEDTAVYYCAIGRRATFQREKDWGQGTQVTVSS | – | 0.042 | 0.439 | 1.05 | – | – | –
iFE49 (VHH, not shown: small tags and cut ends, also called antibody strain 49) VHH: QVQLQESGGDSVQAGGSLRLSCAASGLISTGLISTRHCMSWFRQAPGKEREEVAVIGSDGSTRYGDFAKGRFTISKDTAKNTLYLQMNSLEPEDTAMYYCAAGPLVSTASRRRTRCPEGPRENIYWGQGTQVTVSS | 1.16 | 0.061 | 0.998 | 1.26 | – | – | –
iFE13 (VHH, not shown: small tags and cut ends, also called antibody strain 13) VHH: QVQLQESGGGSVQAGGSLRLSCAGDGYTYSMGAMAWFRQAPGKEREGVALIATSSGFISYTDSVKGRFTISQDDAKIYLQMNSLKPEDTAMYYCAAGTQFSWSPGSYNYWGQGTQVTVSS | 0.0195 | 0.056 | 1.94 | 1.98 | – | – | –
iFE96 (VHH, not shown: small tags and cut ends, also called antibody strain 96) VHH: QVQLQESGGGSVQAGGSLRLSCAASGFTASSNFMGWFRQAPGKEREGVAAIYTGGASTFYADSVKGRFTISQDNAKNTVYLEMDTLKPEDTAMYYCAAAPRWIAPLRADRYEYWGQGTQVTVSS | 1.25 | 0.334 | 0.407 | 0.58 | – | 0.8 | 1.3

The next lines start with the values.

EC50 [1] [µg/mL] | OD [2] [OD] | OD [3] [OD] | OD [4] [OD] | EC50 [5] [µg/mL] | OD at 20 µg/mL [5] [OD] | OD at 20 µg/mL [1] [OD] | Binder
0.0498 | 1.83 | 1.24 | 1.69 | 0.0468 | – | – | iFE166 (VHH, not shown: small tags and cut ends) VHH: QVQLQESGGGSVQAGGSLRLSCVASGFTGCRNIMSWYRQAPGKDREFVSAIDSDGVDYADSVKGRFSISQHNDKKTMYLQMTSLKLEDTAMYYCRRVDFGTTSQCRGNYWGQGTQVTVSS
0.263 | 0.681 | 0.714 | 0.998 | 0.255 | – | – | iFE148 (VHH, not shown: small tags and cut ends) VHH: QVQLQESGGGSVQAGGSLRLSCVASGYTFNNNFVGWFRQAPGKEREGVAAIYSLGGSTYYADSVKGRFTISQDNAKNTVYLQMDSLKPEDTATYYCAGAITWVPPLSHRRYTYWGQGTQVTVSS
0.0205 | 0.843 | 0.619 | 0.974 | 0.0584 | – | – | iFE168 (VHH, not shown: small tags and cut ends, also called antibody strain 168) VHH: QVQLQESGGGSVQAGGSLRLSCAASGYTFSNNFVGWFRQAPGKKREGVATIYTLGSSTYYADSVKGRFTISQDNAKNTLYLEMNSLKPEDTAMYYCAAARGWVSPLDPARFVYWGQGTQVTVSS
0.0162 | 1.07 | 1.46 | 1.09 | 0.0129 | – | – | iFE163 (VHH, not shown: small tags and cut ends) VHH: QVQLQESGGDSVQAGGSLRLSCIASGFTFDDSDMGWYRQAPGHQCEFVSHITNDGTTYYADSVKGRFTISRDNAKNTVYLQMNSLKPEDAAVYYCAADAWGGGRSTCVNPIGYWGQGTQVTVSS
0.735 | 0.774 | 1.3 | 0.994 | 1.23 | 1.4 | – | iFE97 (VHH, not shown: small tags and cut ends, also called antibody strain 97) VHH: QVQLQESGGGSVQAGGSLRLSCTASEFTFDDSDMAWYRQAPGNECELVSTITSDGGTYYADSVKGRFTISQDNAKNTMYLQMNNLKPEDTAVYYCAADQWGSAEGDCTSSYPGGYWGQGTQVTVSS
